Each block holds one binder with its values, some of them ahead of it.
Experiments:
[1] = target: T1, recombinant human FGFR4 Fc Chimera (human, UniProt P22455 22-369); assay: in vitro binding assay (solid phase, bound AP activity); titration of RSPO2-AP on coated FGFR4 Fc Chimera (R&D systems 685-FR); Scatchard analysis; details: one partner purified
T1 construct: Fibroblast Growth Factor receptor 4 (FGFR4), human, extracellular domain; also called FGFR4^ECD; extracellular domain (ECD) of FGFR4; source: bought: R&D systems 685-FR and BioLegend 752502
T1 sequence (looked up): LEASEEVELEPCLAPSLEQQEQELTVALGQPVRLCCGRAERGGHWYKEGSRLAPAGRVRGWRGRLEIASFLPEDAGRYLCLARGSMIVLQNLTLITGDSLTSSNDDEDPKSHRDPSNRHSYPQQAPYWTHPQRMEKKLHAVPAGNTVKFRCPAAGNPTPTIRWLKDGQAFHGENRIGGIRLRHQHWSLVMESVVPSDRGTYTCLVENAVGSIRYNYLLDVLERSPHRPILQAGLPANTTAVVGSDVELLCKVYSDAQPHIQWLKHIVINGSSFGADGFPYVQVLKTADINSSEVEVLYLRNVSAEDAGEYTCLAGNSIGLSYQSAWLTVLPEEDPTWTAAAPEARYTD

[2] = target: T1, recombinant human FGFR4 Fc Chimera; assay: in vitro competitive binding assay (solid phase, bound AP activity); as a8; the peptide (100 uM) against coated FGFR4 Fc Chimera; details: both partners purified

Kd [1]: 1.5 nM
B1: human RSPO2-AP (alkaline-phosphatase-tagged R-Spondin 2 fusion protein) (ligand, UniProt Q6UXX9 22-243, looked up)
chain: QGNRWRRSKRASYVSNPICKGCLSCSKDNGCSRCQQKLFFFLRREGMRQYGECLHSCPSGYYGHRAPDMNRCARCRIENCDSCFSKDFCTKCKVGFYLHRGRCFDECPDGFAPLEETMECVEGCEVGHWSEWGTCSRNNRTCGFKWGLETRTRQIVKKPVKDTILCPTIAESRRCKMTMRHCPGGKRTPKAKEKRNKKKKRKLIERAQEQHSVFLATDRANQ
notes: R-Spondin 2 (RSPO2), human; also called R2; source: HEK293T, transfected, conditioned medium

binding result [2]: binds
B2: TK peptide (10-mer derived from the human RSPO2 TSP1 domain) (peptide)
peptide: TRQIVKKPVK
notes: stretch of the TSP1 domain of human R-Spondin 2 (RSPO2)

binding result [2]: binds
B3: KC peptide (10-mer derived from the human RSPO2 TSP1 domain) (peptide)
peptide: KKPVKDTILC
notes: as for B2

Reference: article PMC10837206, “R-Spondin 2 governs Xenopus left-right body axis formation by establishing an FGF signaling gradient” (Nature Communications, 2024)
